Drawing on PMC7579878, “Unannotated single nucleotide polymorphisms in the TATA box of erythropoiesis genes show in vitro positive involvements in cognitive and mental disorders”, this text covers Kd for eight molecules.

The labels stand for the following.
B1: EPOR TATA-like WT (ODN 5) (dsDNA)
DNA 1: CACGTCATCTATTTTTGTCTGCTACG
DNA 2: CGTAGCAGACAAAAATAGATGACGTG
B2: EPOR rs1006576690:A (-27T>A, ODN 6) (dsDNA)
DNA 1: CACGTCATCTATATTTGTCTGCTACG
DNA 2: CGTAGCAGACAAATATAGATGACGTG
B3: HBB rs34500389:T (-32C>T, ODN 2) (dsDNA)
DNA 1: AGGGCTGGGTATAAAAGTCAGGGCAG
DNA 2: CTGCCCTGACTTTTATACCCAGCCCT
B4: HBZ rs113180943:A (-29T>A, ODN 4) (dsDNA)
DNA 1: AGCTCCCTGTAAATAAGGGGACCCTG
DNA 2: CAGGGTCCCCTTATTTACAGGGAGCT
B5: HBZ TATA WT (ODN 3) (dsDNA)
DNA 1: AGCTCCCTGTATATAAGGGGACCCTG
DNA 2: CAGGGTCCCCTTATATACAGGGAGCT
B6: EPOR rs971717705:G (-29A>G, ODN 7) (dsDNA)
DNA 1: CACGTCATCTGTTTTTGTCTGCTACG
DNA 2: CGTAGCAGACAAAAACAGATGACGTG
B7: HBB TATA WT (ODN 1, -32C) (dsDNA)
DNA 1: AGGGCTGGGCATAAAAGTCAGGGCAG
DNA 2: CTGCCCTGACTTTTATGCCCAGCCCT
B8: EPOR rs567946217:G (-31C>G, ODN 9) (dsDNA)
DNA 1: CACGTCATGTATTTTTGTCTGCTACG
DNA 2: CGTAGCAGACAAAAATACATGACGTG

Chain of TATA-binding protein (hTBP) (P20226 whole entry): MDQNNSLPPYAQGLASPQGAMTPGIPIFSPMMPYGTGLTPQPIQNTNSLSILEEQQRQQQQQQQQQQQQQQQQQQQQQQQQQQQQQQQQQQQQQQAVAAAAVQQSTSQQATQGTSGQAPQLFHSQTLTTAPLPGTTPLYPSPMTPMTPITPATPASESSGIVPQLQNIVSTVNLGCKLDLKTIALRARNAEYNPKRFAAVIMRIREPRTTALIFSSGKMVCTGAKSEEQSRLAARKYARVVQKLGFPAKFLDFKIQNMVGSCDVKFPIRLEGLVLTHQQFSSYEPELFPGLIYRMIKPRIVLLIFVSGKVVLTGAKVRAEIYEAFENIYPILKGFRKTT

The data set addresses TATA-binding protein (hTBP) (Homo sapiens, UniProt P20226 1-339). Briefly: EMSA (kinetic, kd/ka); EMSA with 32P-labelled 26 bp duplexes; binding buffer, salt, pH and temperature not given in the material. As to conditions: protein: recombinant; label: 32P (both strands); blunt. (A gel shift assay detects complexes by their altered migration in electrophoresis.)
One may read the Kd as the equilibrium constant for the complex coming apart. As for B1, the dissociation constant Kd came out at 170 ± 30 nM.

B2: the dissociation constant (Kd) was determined as 11 ± 3 nM.

For the molecule B3, the dissociation constant (Kd) came to 32 ± 3 nM.

Consider B4, for which the Kd was 40 ± 20 nM.

On to B5, for which the Kd worked out at 6 nM.

With B6, the Kd turned out to be 150 ± 30 nM.

As to B7, the Kd was 50 nM.

With B8, the Kd amounted to 80 ± 10 nM.
